In the supplement of paper PMC10567573:

B1: KRT18 (parent)
chain: RAQYDELARKNREELDKYWSQQIE

Variants of: B1
Experiment: protein stability index of a GFP-peptide fusion (GPS, HEK-293T) (PSI 1-6); higher = more stable
Conditions: c terminus: a fixed tail appended
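Further: lentivirally expressed fusions sorted by FACS into six bins by GFP to DsRed ratio, PSI derived from sequencing read proportions per bin multiplied by bin number.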

Point of comparison: RAQYDELPRKNREELDKYWSQQIE [A8P], protein stability index 4.42. Against it:
- RAQYDECARKNREELDKYWSQQIE [L7C] — lower, 3.42
- RAQYDESARKNREELDKYWSQQIE [L7S] — lower, 3.84
- RAQYDETARKNREELDKYWSQQIE [L7T] — lower, 3.68
- RAQYDEFARKNREELDKYWSQQIE [L7F] — lower, 1.27
- RAQYDEMARKNREELDKYWSQQIE [L7M] — lower, 2.38
- RAQYDEHARKNREELDKYWSQQIE [L7H] — lower, 3.62
- RAQYDEPARKNREELDKYWSQQIE [L7P] — lower, 4.08
- RAQYDEKARKNREELDKYWSQQIE [L7K] — lower, 3.93
- RAQYDEWARKNREELDKYWSQQIE [L7W] — lower, 2.13
- RAQYDENARKNREELDKYWSQQIE [L7N] — lower, 4.22
- RAQYDEEARKNREELDKYWSQQIE [L7E] — lower, 2.75
- RAQYDEAARKNREELDKYWSQQIE [L7A] — lower, 3.7
- RAQYDEQARKNREELDKYWSQQIE [L7Q] — lower, 3.78
- RAQYDEDARKNREELDKYWSQQIE [L7D] — lower, 3
- RAQYDERARKNREELDKYWSQQIE [L7R] — lower, 3.89
- RAQYDEVARKNREELDKYWSQQIE [L7V] — lower, 3.41
- RAQYDEYARKNREELDKYWSQQIE [L7Y] — lower, 3.06
- RAQYDEIARKNREELDKYWSQQIE [L7I] — lower, 3.41
- RAQYDEGARKNREELDKYWSQQIE [L7G] — lower, 3.19
- RAQYDELARKNDEELDKYWSQQIE [R12D] — lower, 4.17
- RAQYDELARKNHEELDKYWSQQIE [R12H] — lower, 3.64
- RAQYDELARKNEEELDKYWSQQIE [R12E] — lower, 4.27
- RAQYDELARKNKEELDKYWSQQIE [R12K] — lower, 4.37
- RAQYDELARKNGEELDKYWSQQIE [R12G] — lower, 3.32
- RAQYDELARKNLEELDKYWSQQIE [R12L] — higher, 4.56
- RAQYDELARKNQEELDKYWSQQIE [R12Q] — lower, 4.12
- RAQYDELARKNWEELDKYWSQQIE [R12W] — higher, 4.56
- RAQYDELARKNNEELDKYWSQQIE [R12N] — lower, 3.94
- RAQYDELARKNCEELDKYWSQQIE [R12C] — lower, 3.98
- RAQYDELARKNFEELDKYWSQQIE [R12F] — lower, 4.13
- RAQYDELARKNAEELDKYWSQQIE [R12A] — lower, 4.25
- RAQYDELARKNIEELDKYWSQQIE [R12I] — lower, 4.34
- RAQYDELARKNMEELDKYWSQQIE [R12M] — lower, 3.72
- RAQYDELARKNSEELDKYWSQQIE [R12S] — higher, 4.56
- RAQYDELARKNVEELDKYWSQQIE [R12V] — lower, 4.34
- RAQYDELARKNTEELDKYWSQQIE [R12T] — lower, 4.19
- RAQYDELARKNPEELDKYWSQQIE [R12P] — lower, 4.08
- RAQYDELARKNYEELDKYWSQQIE [R12Y] — lower, 4.05
- RAQYDELRRKNREELDKYWSQQIE [A8R] — lower, 3.51
- RAQYDELSRKNREELDKYWSQQIE [A8S] — lower, 3.5
- RAQYDELIRKNREELDKYWSQQIE [A8I] — lower, 3.17
- RAQYDELGRKNREELDKYWSQQIE [A8G] — lower, 3.72
- RAQYDELNRKNREELDKYWSQQIE [A8N] — lower, 3.54
- RAQYDELFRKNREELDKYWSQQIE [A8F] — lower, 3.41
- RAQYDELDRKNREELDKYWSQQIE [A8D] — lower, 4.2
- RAQYDELTRKNREELDKYWSQQIE [A8T] — lower, 2.33
- RAQYDELQRKNREELDKYWSQQIE [A8Q] — lower, 3.75
- RAQYDELCRKNREELDKYWSQQIE [A8C] — lower, 2.75
- RAQYDELERKNREELDKYWSQQIE [A8E] — higher, 4.57
- RAQYDELLRKNREELDKYWSQQIE [A8L] — lower, 2.34
- RAQYDELMRKNREELDKYWSQQIE [A8M] — lower, 2.66
- RAQYDELWRKNREELDKYWSQQIE [A8W] — lower, 1.31
- RAQYDELHRKNREELDKYWSQQIE [A8H] — lower, 2.17
- RAQYDELKRKNREELDKYWSQQIE [A8K] — lower, 3.85
- RAQYDELVRKNREELDKYWSQQIE [A8V] — lower, 2.6
- RAQYDELAKKNREELDKYWSQQIE [R9K] — lower, 3.52
- RAQYDELASKNREELDKYWSQQIE [R9S] — lower, 3.66
- RAQYDELAPKNREELDKYWSQQIE [R9P] — lower, 4.28
- RAQYDELATKNREELDKYWSQQIE [R9T] — lower, 3.53
- RAQYDELAIKNREELDKYWSQQIE [R9I] — lower, 3.34
- RAQYDELAMKNREELDKYWSQQIE [R9M] — lower, 3.17
- RAQYDELADKNREELDKYWSQQIE [R9D] — lower, 4.4
- RAQYDELAHKNREELDKYWSQQIE [R9H] — lower, 3.4
- RAQYDELAFKNREELDKYWSQQIE [R9F] — lower, 3.88
- RAQYDELAWKNREELDKYWSQQIE [R9W] — lower, 2.62
- RAQYDELAYKNREELDKYWSQQIE [R9Y] — lower, 3.64
- RAQYDELAQKNREELDKYWSQQIE [R9Q] — lower, 3.16
- RAQYDELAAKNREELDKYWSQQIE [R9A] — lower, 3.92
- RAQYDELANKNREELDKYWSQQIE [R9N] — lower, 3.46
- RAQYDELAVKNREELDKYWSQQIE [R9V] — lower, 2.86
- RAQYDELALKNREELDKYWSQQIE [R9L] — lower, 3.27
- RAQYDELAGKNREELDKYWSQQIE [R9G] — higher, 4.53
- RAQYDELAEKNREELDKYWSQQIE [R9E] — lower, 3.69
- RAQYDELACKNREELDKYWSQQIE [R9C] — lower, 3.6
- RAQYDELARRNREELDKYWSQQIE [K10R] — lower, 3.03
- RAQYDELARMNREELDKYWSQQIE [K10M] — lower, 4.04
- RAQYDELARPNREELDKYWSQQIE [K10P] — lower, 3.83
- RAQYDELARHNREELDKYWSQQIE [K10H] — lower, 4.16
- RAQYDELARDNREELDKYWSQQIE [K10D] — higher, 4.73
- RAQYDELARENREELDKYWSQQIE [K10E] — lower, 3.33
- RAQYDELARSNREELDKYWSQQIE [K10S] — lower, 3.23
- RAQYDELARCNREELDKYWSQQIE [K10C] — lower, 3.02
- RAQYDELARTNREELDKYWSQQIE [K10T] — lower, 3.5
- RAQYDELARANREELDKYWSQQIE [K10A] — lower, 2.97
- RAQYDELARFNREELDKYWSQQIE [K10F] — lower, 3.34
- RAQYDELARINREELDKYWSQQIE [K10I] — lower, 2.79
- RAQYDELARNNREELDKYWSQQIE [K10N] — lower, 3.79
- RAQYDELARGNREELDKYWSQQIE [K10G] — lower, 4.05
- RAQYDELARYNREELDKYWSQQIE [K10Y] — lower, 4.15
- RAQYDELARLNREELDKYWSQQIE [K10L] — lower, 3.73
- RAQYDELARQNREELDKYWSQQIE [K10Q] — lower, 3.14
- RAQYDELARWNREELDKYWSQQIE [K10W] — lower, 2.81
- RAQYDELARVNREELDKYWSQQIE [K10V] — lower, 3.15
